Reference: patent US20130251724A1 (GlaxoSmithKline, published 2013)
Where “and” joins values, the source holds several entries; their conditions need not be identical. Identical values can stand only once. Like-named read-outs stand apart in the source and are kept apart here. Blank lines part the entries; values can stand above or below the binder they belong to.

What was measured:
Human OSM [1] = target: T1, Human OSM (human, UniProt P13725 26-221); assay: cell-based or functional assay
T1 sequence: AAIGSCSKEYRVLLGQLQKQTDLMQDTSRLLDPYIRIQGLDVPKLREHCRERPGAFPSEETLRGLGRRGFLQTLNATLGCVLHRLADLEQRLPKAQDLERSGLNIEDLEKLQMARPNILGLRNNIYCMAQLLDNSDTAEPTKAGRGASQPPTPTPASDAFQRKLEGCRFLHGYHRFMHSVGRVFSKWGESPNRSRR

Cynomolgus OSM [2] = target: T2, Cynomolgus OSM (cynomolgus, UniProt A0A2K5VPC6 26-221); assay: cell-based or functional assay
T2 sequence: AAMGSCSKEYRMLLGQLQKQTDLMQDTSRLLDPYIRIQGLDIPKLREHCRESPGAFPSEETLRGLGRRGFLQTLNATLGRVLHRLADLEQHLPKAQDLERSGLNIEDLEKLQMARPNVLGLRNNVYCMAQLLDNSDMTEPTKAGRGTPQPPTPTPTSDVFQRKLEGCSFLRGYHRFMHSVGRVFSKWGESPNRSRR

Human OSM [3] = target: T1, Human OSM; assay: Kinexa solution phase affinity
Protocol: (§1) Kinexa (Sapidyne Instruments 3200) solution phase affinity was used to determine the overall affinity of anti-OSM antibody H0(huCDRH1)L1 and Humanised 15E10 (an unrelated OSM antibody) to human, cynomolgus macaque, rhesus macaque and marmoset OSM (Table 15). Humanised 15E10 was added for comparison purposes.
(§2) OSM beads were prepared either by adsorption (polymethylmethacrylate beads-PMMA) or amine coupling (NHS-activated sepharose beads). The range of OSM molecules studied necessitated the generation of beads coated with different concentrations of OSM. For the solution phase portion of the assay, a fixed concentration of antibody was incubated with a broad range of OSM concentrations and allowed to reach equilibrium by incubation at r.t. for at least 2 h before analysis proceeded. The OSM beads were then used to determine the amount of free antibody present in the solution phase samples, by means of the free antibody binding to the OSM bead matrix then detected using an appropriate secondary antibody (either anti-human or anti-mouse depending on the construct being tested) labelled with a fluorescent dye. The binding curves where fitted using the Kinexa Pro analysis software inherent to the machine. Multiple runs using varying starting concentrations of antibody were then compiled and analysed using the n-curve analysis software to give a more accurate determination of affinity.

Cynomolgus OSM [4] = target: T2, Cynomolgus OSM; assay: Kinexa solution phase affinity
Protocol: as §1, §2

Marmoset OSM [5] = target: T3, Marmoset OSM (marmoset); assay: Kinexa solution phase affinity
T3 construct: also called Marm OSM
Protocol: as §1, §2

Rhesus OSM = target: T4, Rhesus OSM (rhesus macaque, UniProt F7GF43 26-221); assay: Kinexa solution phase affinity
T4 construct: also called rhesus macaque OSM
T4 sequence: T2 sequence
Protocol: as §1, §2

Human OSM [6] = target: T1, Human OSM; assay: cell-based or functional assay; remark: listed apart in the source
Human OSM [7] = target: T1, Human OSM; assay: cell-based or functional assay; remark: listed apart in the source
Human OSM [8] = target: T1, Human OSM; assay: cell-based or functional assay; remark: listed apart in the source
Human OSM [9] = target: T1, Human OSM; assay: cell-based or functional assay; remark: listed apart in the source
Human OSM [10] = target: T1, Human OSM; assay: cell-based or functional assay; remark: listed apart in the source
Human OSM [11] = target: T1, Human OSM; assay: cell-based or functional assay; remark: listed apart in the source
Human OSM [12] = target: T1, Human OSM; assay: cell-based or functional assay; remark: listed apart in the source
Human OSM [13] = target: T1, Human OSM; assay: cell-based or functional assay; remark: listed apart in the source
Human OSM [14] = target: T1, Human OSM; assay: BIAcore kinetics, purified antibody
Cynomolgus OSM [15] = target: T2, Cynomolgus OSM; assay: BIAcore kinetics, purified antibody
Human OSM [16] = target: T1, Human OSM; assay: BIAcore kinetics, purified antibody; remark: listed apart in the source
Cynomolgus OSM [17] = target: T2, Cynomolgus OSM; assay: BIAcore kinetics, purified antibody; remark: listed apart in the source
[18] = target: T5, Endogenous human OSM (neutrophil-derived) (human, UniProt P13725 26-221, limits assumed); assay: gp130 ELISA with endogenous neutrophil-derived human OSM
T5 construct: Native OSM generated from GM-CSF stimulation of healthy human neutrophils; also called native OSM; endogenous OSM
T5 sequence: T1 sequence

Human OSM [19] = target: T1, Human OSM; assay: BIAcore kinetics
Cynomolgus OSM [20] = target: T2, Cynomolgus OSM; assay: BIAcore kinetics
Human OSM [21] = target: T1, Human OSM; assay: cell-based or functional assay; remark: listed apart in the source
Cynomolgus OSM [22] = target: T2, Cynomolgus OSM; assay: cell-based or functional assay; remark: listed apart in the source
Human OSM [23] = target: T1, Human OSM; assay: cell-based or functional assay; remark: listed apart in the source
Cynomolgus OSM [24] = target: T2, Cynomolgus OSM; assay: cell-based or functional assay; remark: listed apart in the source
Marmoset OSM [25] = target: T3, Marmoset OSM; assay: cell-based or functional assay
Human OSM [26] = target: T1, Human OSM; assay: BIAcore kinetics, purified antibody; remark: listed apart in the source
Human OSM [27] = target: T1, Human OSM; assay: BIAcore kinetics, transfection supernatant
Human OSM [28] = target: T1, Human OSM; assay: human gp130 ELISA, inhibition of OSM binding to gp130
Cynomolgus OSM [29] = target: T2, Cynomolgus OSM; assay: as above
[30] = target: T5, Endogenous human OSM …; assay: gp130 ELISA with endogenous neutrophil-derived human OSM; remark: listed apart in the source
Human OSM [31] = target: T1, Human OSM; assay: direct ELISA, human OSM coated at 1 µg/ml, detection with anti-human IgG
Protocol: Both the 10G8 and 9G2 chimaeras successfully bound to human OSM, to a greater extent than 15E10chimera (15E10c) (FIG. 11). This was a direct ELISA where human OSM was coated at 1 μg/ml and bound antibodies detected using anti-human IgG.

KB cell neutralisation assay, mean IC50 (Human OSM [1]): 0.0391 µg/ml and 261 pM | KB cell neutralisation assay, mean IC50 (Cynomolgus OSM [2]): 0.0054 µg/ml and 36 pM | Kd (Human OSM [3]): 0.727 nM | Kd (Cynomolgus OSM [4]): 0.102 nM | Kd (Marmoset OSM [5]): 6.1 nM | Kd (Rhesus OSM): 0.102 nM | IC50 (read off the curve); IL-6 release from HFLS-RA cells stimulated with 0.3 ng/ml human OSM (Human OSM [6]): ~0.1 nM | IC50 (read off the curve); IL-6 release from HFLS-RA cells stimulated with 3 ng/ml human OSM (Human OSM [7]): ~2 nM | IC50 (read off the curve); MCP-1 release from HFLS-RA cells stimulated with 0.3 ng/ml human OSM (Human OSM [8]): ~0.2 nM | IC50 (read off the curve); MCP-1 release from HFLS-RA cells stimulated with 3 ng/ml human OSM (Human OSM [9]): ~2 nM | IC50 (read off the curve); MCP-1 release from normal human lung fibroblasts stimulated with 3 ng/ml OSM (Human OSM [10]): ~1 µg/mL | IC50 (read off the curve); MCP-1 release from IPF human lung fibroblasts stimulated with 3 ng/ml OSM (Human OSM [11]): ~2 µg/mL | IC50 (read off the curve); IL-6 release from normal human lung fibroblasts stimulated with 3 ng/ml OSM (Human OSM [12]): ~0.6 µg/mL | IC50 (read off the curve); IL-6 release from IPF human lung fibroblasts stimulated with 3 ng/ml OSM (Human OSM [13]): ~1 µg/mL | Kd (Human OSM [14]): 1.43 nM | koff (Human OSM [14]): 0.000615 s⁻¹ | kon (Human OSM [14]): 429000 M⁻¹ s⁻¹ | Kd (Cynomolgus OSM [15]): 0.59 nM | koff (Cynomolgus OSM [15]): 0.00031 s⁻¹ | kon (Cynomolgus OSM [15]): 526000 M⁻¹ s⁻¹ | Kd (Human OSM [16]): 0.882 nM | koff (Human OSM [16]): 0.000649 s⁻¹ | kon (Human OSM [16]): 736000 M⁻¹ s⁻¹ | Kd (Cynomolgus OSM [17]): 0.64 nM | koff (Cynomolgus OSM [17]): 0.000324 s⁻¹ | kon (Cynomolgus OSM [17]): 507000 M⁻¹ s⁻¹ | IC50 [18]: 0.076 µg/mL and 0.507 nM
B1: 15E10h, non-competitive anti-OSM humanised antibody (antibody, human IgG1, kappa, V domains shown)
VH: QVQLVESGGGVVQPGRSLRLSCAASGFSLTNYGVHWVRQAPGKGLEWVAVIWRGGSTDYNAAFMSRFTISKDNSKNTLYLQMNSLRAEDTAVYYCAKSPNSNFYWYFDVWGRGTLVTVSS
VL: EIVLTQSPATLSLSPGERATLSCSGSSSVSYMYWYQQKPGQAPRLLIEDTSNLASGIPARFSGSGSGTDYTLTISNLEPEDFAVYYCQQWSSYPPTFGQGTKLEIKR
notes: also called Humanised 15E10; humanised 15E10

Kd (Human OSM [19]): 0.654 nM | koff (Human OSM [19]): 0.000152 s⁻¹ | kon (Human OSM [19]): 233000 M⁻¹ s⁻¹ | Kd (Cynomolgus OSM [20]): 0.48 nM | koff (Cynomolgus OSM [20]): 0.000114 s⁻¹ | kon (Cynomolgus OSM [20]): 237000 M⁻¹ s⁻¹ | KB cell neutralisation assay, mean IC50 (Human OSM [21]): 0.021 µg/ml and 140 pM | KB cell neutralisation assay, mean IC50 (Cynomolgus OSM [22]): 0.008 µg/ml and 53 pM | KB cell neutralisation assay, mean IC50 (Human OSM [23]): 0.022 µg/ml and 144 pM | KB cell neutralisation assay, mean IC50 (Cynomolgus OSM [24]): 0.008 µg/ml and 100 pM | KB cell neutralisation assay, mean IC50 (Human OSM [1]): 0.0052 µg/ml and 35 pM | KB cell neutralisation assay, mean IC50 (Cynomolgus OSM [2]): 0.0011 µg/ml and 7 pM | KB cell neutralisation assay, mean IC50 (Marmoset OSM [25]): 0.0271 µg/ml and 181 pM | Kd (Human OSM [26]): 0.407 nM | koff (Human OSM [26]): 0.000105 s⁻¹ | kon (Human OSM [26]): 257000 M⁻¹ s⁻¹ | Kd (Human OSM [14]): 0.518 nM | koff (Human OSM [14]): 0.000125 s⁻¹ | kon (Human OSM [14]): 241000 M⁻¹ s⁻¹ | Kd (Cynomolgus OSM [15]): 0.394 nM | koff (Cynomolgus OSM [15]): 9.95e-05 s⁻¹ | kon (Cynomolgus OSM [15]): 253000 M⁻¹ s⁻¹ | Kd (Human OSM [16]): 0.184 nM | koff (Human OSM [16]): 7.87e-05 s⁻¹ | kon (Human OSM [16]): 427000 M⁻¹ s⁻¹ | Kd (Cynomolgus OSM [17]): 0.266 nM | koff (Cynomolgus OSM [17]): 6.63e-05 s⁻¹ | kon (Cynomolgus OSM [17]): 250000 M⁻¹ s⁻¹ | Kd (Human OSM [27]): 0.407 nM | koff (Human OSM [27]): 0.000103 s⁻¹ | kon (Human OSM [27]): 252000 M⁻¹ s⁻¹ | IC50 (Human OSM [28]): 0.037 µg/mL and 0.247 nM | IC50 (Cynomolgus OSM [29]): 0.016 µg/mL and 0.107 nM | IC50 [30]: 0.009 µg/mL and 0.06 nM | IC50 [18]: 0.0091 µg/mL and 0.061 nM | EC50 (read off the curve) (Human OSM [31]): ~0.2 nM
B2: 10G8 chimaera (antibody, human IgG1, kappa, V domains shown)
VH: EMQLVESGEGLVEPGGSLKLSCAASGFTFSNYAMSWVRQTPEKSLEWVATISDGGSFTYYLDNVRGRFTISRDNAKNNLYLQMSHLKSDDTAMYYCARDVGHTTFWYFDVWGSGTLVTVSS
VL: DIVLTQSPVFLVVSLGQRATISCRASKSVSAAGYNFMHWYQQKPGQPPKVLIKYASNLESGVPARFSGSGSGTDFTLNIHPVEEEDAVTYYCLHSREFPFTFGGGTNLEIKR
notes: Mouse V regions on human gamma 1 wild type and human kappa constant regions; the entries called VH/VL domain (chimera) are full chains; also called 10G8 chimera; 10G8 Chimæra
